Assay results as given in patent EP4545559A2 (INSTITUTO BUTANTAN, dated 2025).
Read-outs that look alike come from different tables or passages of the source.

Legend:
[1] = molecular target: T1, RBD Gamma (K417T/E484K/N501Y) (SARS-CoV-2, UniProt P0DTC2 319-541); experiment: SPR, antigen on CM5 sensor
T1 construct: domain: RBD

RBD Delta (L452R/T478K) [2] = molecular target: T2, RBD Delta (L452R/T478K) (SARS-CoV-2, UniProt P0DTC2 319-541); experiment: SPR, antigen on CM5 sensor
T2 construct: domain: RBD

[3] = molecular target: T3, RBD Omicron (G339D, S371L, S373P, S375F, K417N, N440K, G446S, S477N, T478K, E484A, Q493R, G496S, Q49 (SARS-CoV-2, UniProt P0DTC2 319-541)); experiment: SPR, antigen on CM5 sensor
T3 construct: range 319-541

[4] = molecular target: T3, RBD Omicron (G339D, S371L, S373P, …); experiment: SPR kinetics; * dissociation in 360sec
[5] = molecular target: T1, RBD Gamma (K417T/E484K/N501Y); experiment: SPR kinetics; *** did not dissociate until 36000sec
RBD Delta (L452R/T478K) [6] = molecular target: T2, RBD Delta (L452R/T478K); experiment: as above
[7] = molecular target: T1, RBD Gamma (K417T/E484K/N501Y); experiment: SPR, antigen on CM5 sensor; remark: listed apart in the source
RBD Delta (L452R/T478K) [8] = molecular target: T2, RBD Delta (L452R/T478K); experiment: SPR, antigen on CM5 sensor; remark: listed apart in the source
[9] = molecular target: T3, RBD Omicron (G339D, S371L, S373P, …); experiment: SPR, antigen on CM5 sensor; remark: listed apart in the source
RBD Delta (L452R/T478K) [10] = molecular target: T2, RBD Delta (L452R/T478K); experiment: SPR kinetics; ** dissociation in 36000sec
[11] = molecular target: T1, RBD Gamma (K417T/E484K/N501Y); experiment: SPR kinetics; *** did not dissociate until 36000sec; remark: listed apart in the source
[12] = molecular target: T3, RBD Omicron (G339D, S371L, S373P, …); experiment: as above
[13] = molecular target: T1, RBD Gamma (K417T/E484K/N501Y); experiment: SPR, antigen on CM5 sensor; remark: listed apart in the source
RBD Delta (L452R/T478K) [14] = molecular target: T2, RBD Delta (L452R/T478K); experiment: SPR, antigen on CM5 sensor; remark: listed apart in the source
[15] = molecular target: T3, RBD Omicron (G339D, S371L, S373P, …); experiment: SPR, antigen on CM5 sensor; remark: listed apart in the source
RBD Delta (L452R/T478K) [16] = molecular target: T2, RBD Delta (L452R/T478K); experiment: SPR kinetics; * dissociation in 360sec
[17] = molecular target: T3, RBD Omicron (G339D, S371L, S373P, …); experiment: SPR kinetics; * dissociation in 360sec; remark: listed apart in the source
[18] = molecular target: T1, RBD Gamma (K417T/E484K/N501Y); experiment: SPR kinetics; *** did not dissociate until 36000sec; remark: listed apart in the source
[19] = molecular target: T1, RBD Gamma (K417T/E484K/N501Y); experiment: SPR, antigen on CM5 sensor; remark: listed apart in the source
RBD Delta (L452R/T478K) [20] = molecular target: T2, RBD Delta (L452R/T478K); experiment: SPR, antigen on CM5 sensor; remark: listed apart in the source
[21] = molecular target: T3, RBD Omicron (G339D, S371L, S373P, …); experiment: SPR, antigen on CM5 sensor; remark: listed apart in the source
[22] = molecular target: T1, RBD Gamma (K417T/E484K/N501Y); experiment: SPR kinetics; *** did not dissociate until 36000sec; remark: listed apart in the source
RBD Delta (L452R/T478K) [23] = molecular target: T2, RBD Delta (L452R/T478K); experiment: as above; remark: listed apart in the source
[24] = molecular target: T3, RBD Omicron (G339D, S371L, S373P, …); experiment: as above; remark: listed apart in the source
[25] = molecular target: T1, RBD Gamma (K417T/E484K/N501Y); experiment: SPR, antigen on CM5 sensor; remark: listed apart in the source
RBD Delta (L452R/T478K) [26] = molecular target: T2, RBD Delta (L452R/T478K); experiment: SPR, antigen on CM5 sensor; remark: listed apart in the source
[27] = molecular target: T3, RBD Omicron (G339D, S371L, S373P, …); experiment: SPR, antigen on CM5 sensor; remark: listed apart in the source
[28] = molecular target: T3, RBD Omicron (G339D, S371L, S373P, …); experiment: SPR kinetics; ** dissociation in 36000sec
[29] = molecular target: T1, RBD Gamma (K417T/E484K/N501Y); experiment: SPR kinetics; *** did not dissociate until 36000sec; remark: listed apart in the source
RBD Delta (L452R/T478K) [30] = molecular target: T2, RBD Delta (L452R/T478K); experiment: as above; remark: listed apart in the source
[31] = molecular target: T1, RBD Gamma (K417T/E484K/N501Y); experiment: SPR, antigen on CM5 sensor; remark: listed apart in the source
RBD Delta (L452R/T478K) [32] = molecular target: T2, RBD Delta (L452R/T478K); experiment: SPR, antigen on CM5 sensor; remark: listed apart in the source
[33] = molecular target: T3, RBD Omicron (G339D, S371L, S373P, …); experiment: SPR, antigen on CM5 sensor; remark: listed apart in the source
[34] = molecular target: T3, RBD Omicron (G339D, S371L, S373P, …); experiment: SPR kinetics; * dissociation in 360sec; remark: listed apart in the source
[35] = molecular target: T1, RBD Gamma (K417T/E484K/N501Y); experiment: SPR kinetics; *** did not dissociate until 36000sec; remark: listed apart in the source
RBD Delta (L452R/T478K) [36] = molecular target: T2, RBD Delta (L452R/T478K); experiment: as above; remark: listed apart in the source

B1: Monoclonal antibody S.9.4.C7 (antibody, V domains shown)
VH: QVQLVESGGGVVQPGRSLRLSCAASGFTFRNYAMHWVRQAPGKGLEWVTVISYDGSDKYYADSVKGRFTISRDNSKNTLYLQMNSLRAEDTAVYYCAKDPVGGYCSGGRCYFHSHYFDYWGQGTLVTVSS
VL: NFMLTQPHSVSESPGKTVTISCTRSSGSIASYYVQWYQQRPGSSPTTVISEDNQRPSGVPDRFSGSIDSSSNSASLTISGLKTEDEADYYCQSYDSNNHVIFGGGTKLTVL
notes: also called mAb S.9.4.C7
RU [1]: 481 RU
RU (RBD Delta (L452R/T478K) [2]): 1150 RU
RU [3]: 160 RU
Kd [4]: 1.31 nM
Kd [5]: ~0.205 nM
Kd (RBD Delta (L452R/T478K) [6]): ~0.14 nM

B2: Monoclonal antibody S.9.2.D7 (antibody, V domains shown)
VH: EVQLLESGGGLIQTGGSLRLSCAASGFTFSSYAMSWVRQAPGKGLEWVSVISDSGGSTYYADSVKGRLTISRDNSKNTLYVQMNSLRAEDTAVYYCAKGKGGIAAAGPAFLFDYWGQGTLVTVSS
VL: DIQMTQSPSLLSASAGDRVTISCRMSQGISSYLAWYQQKPGKAPELLISSASTLQSGVPSRFSGSGSGTDFTLTISYLQSEDFATYYCQQYYSFPTTFGGGTKVEIK
notes: also called mAb S.9.2.D7
RU [7]: 50 RU
RU (RBD Delta (L452R/T478K) [8]): 0 RU
RU [9]: 0 RU
Kd (RBD Delta (L452R/T478K) [10]): 0.00184 nM
Kd [11]: ~0.000237 nM
Kd [12]: ~0.00629 nM

B3: Monoclonal antibody S.11.1.D12 (antibody, V domains shown)
VH: EVQLLESGGGLVQPGGSLRLSCAASGFPFITYPMSWVRQAPGKGLEWVSDIGGIGGSTSYADSVKGRFTISRDNYQNTVYLQMHSLRAEDTAVYYCAKWKSRVDSSYKGGGWFDSWGPGTLVTVSS
VL: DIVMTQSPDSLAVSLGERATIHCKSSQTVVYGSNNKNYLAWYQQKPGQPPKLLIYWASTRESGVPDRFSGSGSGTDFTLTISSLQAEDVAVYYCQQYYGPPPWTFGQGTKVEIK
notes: also called mAb S.11.1.D12
RU [13]: 44 RU
RU (RBD Delta (L452R/T478K) [14]): 771 RU
RU [15]: 145 RU
Kd (RBD Delta (L452R/T478K) [16]): 0.636 nM
Kd [17]: 3.73 nM
Kd [18]: ~11 nM

B4: Monoclonal antibody S.10.1.C6 (antibody, V domains shown)
VH: QLQLQESGPGLVKPSETLSLTCTVSGGSISSSSYYWGWIRQPPGKGLEWIGSFYYSGGSYYNPSLKSRVTISVDTSKNQFSLKLSSVTAADTAVYYCARDEHGDYAVGYWGQGTLVTVSS
VL: QSVLTQPPSVSGAPGQRVTISCTGSSSNIGAGYDVHWYQQLPGTAPKLLIYGNNNRPSGVPDRFSGSKSGTSASLAITGLQAEDEADYYCQSYDSSLSALYVFGTGTKVTVL
notes: also called S.10.1.C6 mAb
RU [19]: 134 RU
RU (RBD Delta (L452R/T478K) [20]): 343 RU
RU [21]: 66 RU
Kd [22]: ~0.235 nM
Kd (RBD Delta (L452R/T478K) [23]): ~0.00812 nM
Kd [24]: ~0.804 nM

B5: Monoclonal antibody S.9.4.F4 (antibody, V domains shown)
VH: QVQLVESGGGVVQPGRSLRLSCAASGFTFSHYGMHWVRQAPGKGLEWVAVILYDGSNEYYADSVKGRFTISRDNSKNTLYLQMNSLRAEDTAVYYCAKGAGTYCSGGNCYVAYFDYWGQGTLVTVSS
VL: AIRMTQSPSSLSASVGDRVTITCQASQDISNYLNWYQQKPGKAPKLLIYDASNLETGVPSRFSGSGSGTDFTVTISSLQPEDFATYYCQQYDNLPLTFGGGTKVEIK
notes: also called mAb S.9.4.F4
RU [25]: 160 RU
RU (RBD Delta (L452R/T478K) [26]): 373 RU
RU [27]: 74 RU
Kd [28]: 0.231 nM
Kd [29]: ~0.0187 nM
Kd (RBD Delta (L452R/T478K) [30]): ~0.00122 nM

B6: Monoclonal antibody S.11.1.C8 (antibody, V domains shown)
VH: QVQLVESGGGVVQPGRSLRLSCAASGFTFSTFSMHWVRQAPGKGLEWVAVILYDGTYKSYADSVKGRFTISRDNSGNTLFLQMNSLRAEDSAVYYCARDFGEMTTYFDFWGQGTLVTVSS
VL: DIQMTQPPSSLSASVGDRVTITCRASQSIGNNLNWYQQKPGKAPKLLIYVASSLQSGVPSRFSGSGSGTDFTLTISSLQPEDFATYFCQQSYSTPPWTFGQGTKVEIK
notes: also called mAb S.11.1.C8
RU [31]: 360 RU
RU (RBD Delta (L452R/T478K) [32]): 799 RU
RU [33]: 166 RU
Kd [34]: 0.615 nM
Kd [35]: ~0.103 nM
Kd (RBD Delta (L452R/T478K) [36]): ~0.0131 nM
